Assays:
[1] = NCT03131687: nausea, vomiting and diarrhea, new events per interval; assay type: in vivo, human
Procedure: Clinical Study (NCT03131687) Supporting Maintenance Dose Embodiments A 6-month (26-week) Phase 2 double-blind clinical study is designed to evaluate the safety, efficacy, and PK/PD of 4 dose levels (1 mg, 5 mg, 10 mg and 15 mg respectively) of tirzepatide once weekly by subcutaneous injection compared with dulaglutide 1.5 mg. once weekly (QW) and placebo QW in patients with T2DM who have inadequate glycemic control with diet and exercise with or without a stable dose of metformin. Tirzepatide dose is up-titrated to the maintenance dose using the following weekly dose increments:
The study also has a 4-week follow up period. In addition to safety and efficacy for treating T2DM, efficacy endpoints include the effect of tirzepatide on HbA1c, FBG, body weight, lipids, and waist circumference compared with placebo and with dulaglutide 1.5 mg. The study also evaluates the effect of tirzepatide on GI tolerability, hypoglycemia, hypersensitivity reactions, and pancreatic safety, as well as the development of treatment-emergent anti-drug antibodies. Model-based dose response analyses are performed to predict potential for significant HbA1c lowering and weight loss in longer studies. Statistical Analyses: Efficacy: The primary efficacy outcome of HbA1c change from baseline to the 26-week endpoint is analyzed using a Bayesian dose-response model. Analyses are performed on the intention to treat population (mITT) analysis set. Supportive analysis of the primary efficacy outcome for the mITT dataset are the model for post-baseline measures (MMRM) with body mass index (BMI) (<30 kg/m^2, ≥30 kg/m^2), metformin use, treatment, visit, and treatment-by-visit interaction as fixed effects, baseline HbA1c as a covariate, and patient as a random effect. The mean weight change from baseline at 12 and 26 weeks, along with the mean change from baseline of HbA1c at 12 weeks, is analyzed using similar dose-response models as the primary analyses. The percentages of patients with ≥5% or ≥10% body weight loss, reaching the HbA1c target of ≤6.5% or ≤7.0% at 26 weeks, or requiring rescue therapy are analyzed using logistic regression with fixed effects of treatment and strata, and baseline as a covariate. The changes from baseline in FBG (fasting blood glucose), SMBG (self-monitored blood glucose) levels, waist circumference, and mean percentage change in lipids from baseline to 12 and 26 weeks are analyzed using a similar MMRM to the one used for the primary analyses. Table Abbreviations: Dula 1.5 mg=dulaglutide 1.5 mg once weekly; LY means tirzepatide, and LY 1 mg=tirzepatide 1 mg once weekly; LY 5 mg=5 mg once weekly; LY 10 mg=escalation dose group tirzepatide once weekly with highest dose of 10 mg; LY 15 mg=escalation dose group of tirzepatide once weekly with highest dose 15 mg; LOCF=last observation-carried-forward; N=number of patients; pbo=placebo; Week 26=mITT on-treatment data at Week 26 excluding data after study drug discontinuation or rescue drug initiation; mITT=modified intent-to-treat; SD=standard deviation. For Table 4, n=number of patients in the population with baseline and post-baseline value at the specified time point. For Table 6, LY10 mg=escalation dose group tirzepatide, once weekly with highest dose of 10 mg; escalation dose: (5 mg weeks 0 and 1), LY15 mg=escalation dose group tirzepatide, once weekly with highest dose of 15 mg; escalation dose: (5 mg weeks 0 and 1; 10 mg weeks 2 to 5); N=number of patients in specified group, m=number of patients who experienced new event during interval, FolUp=follow up, T/Wk=Time range, (week) and %=means percent patients spending at least some time in treatment group who experienced new event during interval. For Table 7, n is the number of patients with events meeting the criteria; N is number of patients in the population; % is percent of patients in treatment group experiencing the event.

patients with T2DM = assay: Biomarkers measured in clinical studies (eGFR, triglyceride); assay type: in vivo, human
Procedure: Clinically relevant biomarkers are measured in clinical studies to further support the use of tirzepatide for treating chronic kidney disease. […] Clinical study laboratory measurements support the use of tirzepatide in the treatment of chronic kidney disease. Clinically relevant biomarkers are measured to assess and support the use of tirzepatide in the treatment of atherosclerosis. Clinically relevant triglyceride levels decrease in all tirzepatide treatment groups. Clinical observations support that tirezepatide can be beneficial for use in the treatment of atherosclerosis.

[2] = LY10 mg (tirzepatide 5 mg weeks 0 and 1, then 10 mg once weekly), N = 51, Fol Up (follow up)
[3] = LY10 mg (tirzepatide 5 mg weeks 0 and 1, then 10 mg once weekly), N = 51, T/Wk 0
[4] = LY10 mg (tirzepatide 5 mg weeks 0 and 1, then 10 mg once weekly), N = 51, T/Wk 1
[5] = LY10 mg (tirzepatide 5 mg weeks 0 and 1, then 10 mg once weekly), N = 51, T/Wk 2
[6] = LY10 mg (tirzepatide 5 mg weeks 0 and 1, then 10 mg once weekly), N = 51, T/Wk 3
[7] = LY10 mg (tirzepatide 5 mg weeks 0 and 1, then 10 mg once weekly), N = 51, T/Wk 4
[8] = LY10 mg (tirzepatide 5 mg weeks 0 and 1, then 10 mg once weekly), N = 51, T/Wk 5
[9] = LY10 mg (tirzepatide 5 mg weeks 0 and 1, then 10 mg once weekly), N = 51, T/Wk 6
[10] = LY10 mg (tirzepatide 5 mg weeks 0 and 1, then 10 mg once weekly), N = 51, T/Wk 7
[11] = LY10 mg (tirzepatide 5 mg weeks 0 and 1, then 10 mg once weekly), N = 51, T/Wk 8
[12] = LY10 mg (tirzepatide 5 mg weeks 0 and 1, then 10 mg once weekly), N = 51, T/Wk 9
[13] = LY10 mg (tirzepatide 5 mg weeks 0 and 1, then 10 mg once weekly), N = 51, T/Wk 10
[14] = LY10 mg (tirzepatide 5 mg weeks 0 and 1, then 10 mg once weekly), N = 51, T/Wk 11
[15] = LY10 mg (tirzepatide 5 mg weeks 0 and 1, then 10 mg once weekly), N = 51, T/Wk 12
[16] = LY10 mg (tirzepatide 5 mg weeks 0 and 1, then 10 mg once weekly), N = 51, T/Wk >12 < 16
[17] = LY10 mg (tirzepatide 5 mg weeks 0 and 1, then 10 mg once weekly), N = 51, T/Wk >16 ≤ 20
[18] = LY10 mg (tirzepatide 5 mg weeks 0 and 1, then 10 mg once weekly), N = 51, T/Wk >20
[19] = LY15 mg (tirzepatide 5 mg weeks 0 and 1; 10 mg weeks 2 to 5; then 15 mg once weekly), N = 53, Fol Up (follow up)
[20] = LY15 mg (tirzepatide 5 mg weeks 0 and 1; 10 mg weeks 2 to 5; then 15 mg once weekly), N = 53, T/Wk 0
[21] = LY15 mg (tirzepatide 5 mg weeks 0 and 1; 10 mg weeks 2 to 5; then 15 mg once weekly), N = 53, T/Wk 1
[22] = LY15 mg (tirzepatide 5 mg weeks 0 and 1; 10 mg weeks 2 to 5; then 15 mg once weekly), N = 53, T/Wk 2
[23] = LY15 mg (tirzepatide 5 mg weeks 0 and 1; 10 mg weeks 2 to 5; then 15 mg once weekly), N = 53, T/Wk 3
[24] = LY15 mg (tirzepatide 5 mg weeks 0 and 1; 10 mg weeks 2 to 5; then 15 mg once weekly), N = 53, T/Wk 4
[25] = LY15 mg (tirzepatide 5 mg weeks 0 and 1; 10 mg weeks 2 to 5; then 15 mg once weekly), N = 53, T/Wk 5
[26] = LY15 mg (tirzepatide 5 mg weeks 0 and 1; 10 mg weeks 2 to 5; then 15 mg once weekly), N = 53, T/Wk 6
[27] = LY15 mg (tirzepatide 5 mg weeks 0 and 1; 10 mg weeks 2 to 5; then 15 mg once weekly), N = 53, T/Wk 7
[28] = LY15 mg (tirzepatide 5 mg weeks 0 and 1; 10 mg weeks 2 to 5; then 15 mg once weekly), N = 53, T/Wk 8
[29] = LY15 mg (tirzepatide 5 mg weeks 0 and 1; 10 mg weeks 2 to 5; then 15 mg once weekly), N = 53, T/Wk 9
[30] = LY15 mg (tirzepatide 5 mg weeks 0 and 1; 10 mg weeks 2 to 5; then 15 mg once weekly), N = 53, T/Wk 10
[31] = LY15 mg (tirzepatide 5 mg weeks 0 and 1; 10 mg weeks 2 to 5; then 15 mg once weekly), N = 53, T/Wk 11
[32] = LY15 mg (tirzepatide 5 mg weeks 0 and 1; 10 mg weeks 2 to 5; then 15 mg once weekly), N = 53, T/Wk 12
[33] = LY15 mg (tirzepatide 5 mg weeks 0 and 1; 10 mg weeks 2 to 5; then 15 mg once weekly), N = 53, T/Wk >12 < 16
[34] = LY15 mg (tirzepatide 5 mg weeks 0 and 1; 10 mg weeks 2 to 5; then 15 mg once weekly), N = 53, T/Wk >16 ≤ 20
[35] = LY15 mg (tirzepatide 5 mg weeks 0 and 1; 10 mg weeks 2 to 5; then 15 mg once weekly), N = 53, T/Wk >20

tirzepatide [LY]
Nausea Vomiting and Diarrhea: % patients who experienced new event during interval [1, 2]: 2.1% | Nausea Vomiting and Diarrhea: m, number of patients who experienced new event during interval [1, 2]: 1 | Nausea Vomiting and Diarrhea: % patients who experienced new event during interval [1, 3]: 20% | Nausea Vomiting and Diarrhea: m, number of patients who experienced new event during interval [1, 3]: 9 | Nausea Vomiting and Diarrhea: % patients who experienced new event during interval [1, 4]: 3.9% | Nausea Vomiting and Diarrhea: m, number of patients who experienced new event during interval [1, 4]: 2 | Nausea Vomiting and Diarrhea: % patients who experienced new event during interval [1, 5]: 3.9% | Nausea Vomiting and Diarrhea: m, number of patients who experienced new event during interval [1, 5]: 2 | Nausea Vomiting and Diarrhea: % patients who experienced new event during interval [1, 6]: 2.0% | Nausea Vomiting and Diarrhea: m, number of patients who experienced new event during interval [1, 6]: 1 | Nausea Vomiting and Diarrhea: % patients who experienced new event during interval [1, 7]: 6.0% | Nausea Vomiting and Diarrhea: m, number of patients who experienced new event during interval [1, 7]: 3 | Nausea Vomiting and Diarrhea: % patients who experienced new event during interval [1, 8]: 4.0% | Nausea Vomiting and Diarrhea: m, number of patients who experienced new event during interval [1, 8]: 2 | Nausea Vomiting and Diarrhea: % patients who experienced new event during interval [1, 9]: 2.0% | Nausea Vomiting and Diarrhea: m, number of patients who experienced new event during interval [1, 9]: 1 | Nausea Vomiting and Diarrhea: % patients who experienced new event during interval [1, 10]: 4.1% | Nausea Vomiting and Diarrhea: m, number of patients who experienced new event during interval [1, 10]: 2 | Nausea Vomiting and Diarrhea: % patients who experienced new event during interval [1, 11]: 2.0% | Nausea Vomiting and Diarrhea: m, number of patients who experienced new event during interval [1, 11]: 1 | Nausea Vomiting and Diarrhea: % patients who experienced new event during interval [1, 12]: 4.1% | Nausea Vomiting and Diarrhea: m, number of patients who experienced new event during interval [1, 12]: 2 | Nausea Vomiting and Diarrhea: % patients who experienced new event during interval [1, 13]: m = 0; 0% | Nausea Vomiting and Diarrhea: m, number of patients who experienced new event during interval [1, 13]: m = 0; 0% | Nausea Vomiting and Diarrhea: % patients who experienced new event during interval [1, 14]: m = 0; 0% | Nausea Vomiting and Diarrhea: m, number of patients who experienced new event during interval [1, 14]: m = 0; 0% | Nausea Vomiting and Diarrhea: % patients who experienced new event during interval [1, 15]: 2.0% | Nausea Vomiting and Diarrhea: m, number of patients who experienced new event during interval [1, 15]: 1 | Nausea Vomiting and Diarrhea: % patients who experienced new event during interval [1, 16]: 2.0% | Nausea Vomiting and Diarrhea: m, number of patients who experienced new event during interval [1, 16]: 1 | Nausea Vomiting and Diarrhea: % patients who experienced new event during interval [1, 17]: 2.1% | Nausea Vomiting and Diarrhea: m, number of patients who experienced new event during interval [1, 17]: 1 | Nausea Vomiting and Diarrhea: % patients who experienced new event during interval [1, 18]: 2.1% | Nausea Vomiting and Diarrhea: m, number of patients who experienced new event during interval [1, 18]: 1 | Nausea Vomiting and Diarrhea: % patients who experienced new event during interval [1, 19]: 0.0% | Nausea Vomiting and Diarrhea: m, number of patients who experienced new event during interval [1, 19]: 0 | Nausea Vomiting and Diarrhea: % patients who experienced new event during interval [1, 20]: 32.1% | Nausea Vomiting and Diarrhea: m, number of patients who experienced new event during interval [1, 20]: 17 | Nausea Vomiting and Diarrhea: % patients who experienced new event during interval [1, 21]: 18.9% | Nausea Vomiting and Diarrhea: m, number of patients who experienced new event during interval [1, 21]: 10 | Nausea Vomiting and Diarrhea: % patients who experienced new event during interval [1, 22]: 5.8% | Nausea Vomiting and Diarrhea: m, number of patients who experienced new event during interval [1, 22]: 3 | Nausea Vomiting and Diarrhea: % patients who experienced new event during interval [1, 23]: 11.4% | Nausea Vomiting and Diarrhea: m, number of patients who experienced new event during interval [1, 23]: 6 | Nausea Vomiting and Diarrhea: % patients who experienced new event during interval [1, 24]: 5.9% | Nausea Vomiting and Diarrhea: m, number of patients who experienced new event during interval [1, 24]: 3 | Nausea Vomiting and Diarrhea: % patients who experienced new event during interval [1, 25]: 2.0% | Nausea Vomiting and Diarrhea: m, number of patients who experienced new event during interval [1, 25]: 1 | Nausea Vomiting and Diarrhea: % patients who experienced new event during interval [1, 26]: 3.9% | Nausea Vomiting and Diarrhea: m, number of patients who experienced new event during interval [1, 26]: 2 | Nausea Vomiting and Diarrhea: % patients who experienced new event during interval [1, 27]: 5.9% | Nausea Vomiting and Diarrhea: m, number of patients who experienced new event during interval [1, 27]: 3 | Nausea Vomiting and Diarrhea: % patients who experienced new event during interval [1, 28]: 4.0% | Nausea Vomiting and Diarrhea: m, number of patients who experienced new event during interval [1, 28]: 2 | Nausea Vomiting and Diarrhea: % patients who experienced new event during interval [1, 29]: 0.0% | Nausea Vomiting and Diarrhea: m, number of patients who experienced new event during interval [1, 29]: 0 | Nausea Vomiting and Diarrhea: % patients who experienced new event during interval [1, 30]: 0.0% | Nausea Vomiting and Diarrhea: m, number of patients who experienced new event during interval [1, 30]: 0 | Nausea Vomiting and Diarrhea: % patients who experienced new event during interval [1, 31]: 2.0% | Nausea Vomiting and Diarrhea: m, number of patients who experienced new event during interval [1, 31]: 1 | Nausea Vomiting and Diarrhea: % patients who experienced new event during interval [1, 32]: 2.1% | Nausea Vomiting and Diarrhea: m, number of patients who experienced new event during interval [1, 32]: 1 | Nausea Vomiting and Diarrhea: % patients who experienced new event during interval [1, 33]: 2.1% | Nausea Vomiting and Diarrhea: m, number of patients who experienced new event during interval [1, 33]: 1 | Nausea Vomiting and Diarrhea: % patients who experienced new event during interval [1, 34]: 2.1% | Nausea Vomiting and Diarrhea: m, number of patients who experienced new event during interval [1, 34]: 1 | Nausea Vomiting and Diarrhea: % patients who experienced new event during interval [1, 35]: 2.1% | Nausea Vomiting and Diarrhea: m, number of patients who experienced new event during interval [1, 35]: 1 | triglyceride levels (in words) (patients with T2DM; all tirzepatide treatment groups): decrease | eGFR (in words) (patients with T2DM; study NCT03131687, at any dosage): no decrease in eGFR was observed
